Assay [1] deals with HLA-DR2 (a mix of DRB1*1501 and DRB5*0101) (Homo sapiens, UniProt P01903+P01911+Q30154). Nature of the assay: DELFIA competitive binding assay, solubilized HLA-DR2. The note with it: in words, from IC50 / plot of 1/IC50. The source says:
Measurement of the IC50 is preferably done by europium-streptavidin dissociation-enhanced lenthanide fluoroimmunoassay (DELFIA) and the IC50 typically calculated by four parameter fit analysis with the software program SOFTmax Pro.

Assay [2] deals with HLA-DR3 (a mix of DRB1*0301 and DRB3*0101). The assay is described as follows: DELFIA competitive binding assay, solubilized HLA-DR3. The settings on record: in words, from IC50. More on the design: species or system human. How it is done:
The sequence of the AChRα subunit is shown with each of the transmembrane regions (M1-M4) indicated by a shaded box.) Ten-fold dilutions (preferably 1-100,000 nM) of unlabeled AChRα peptides were co-incubated at pH 5.5 with the biotinylated myelin basic protein peptide MBP 84-102, and the IC50 of binding to solubilized HLA-DR2 (a mix of DRB1*1501 and DRB5*0101) or HLA-DR3 (a mix of DRB1*0301 and DRB3*0101) was measured. Measurement of the IC50 is preferably done by europium-streptavidin dissociation-enhanced lenthanide fluoroimmunoassay (DELFIA) and the IC50 typically calculated by four parameter fit analysis with the software program SOFTmax Pro. FIG. 2 lists the IC50s of each AChRα peptide binding to HLA-DR2 and HLA-DR3.

Consider “AChRα 113-126: synthetic peptide fragment of the acetylcholine receptor α subunit, residues 113-126 (TGHITWTPPAIFKS)”, for which the “relative affinity for HLA-DR2” value in assay [1] is given as “high relative affinity”.

Turning to “AChRα 419-437: synthetic peptide fragment of the acetylcholine receptor α subunit, residues 419-437 (IIGTLAVFAGRLIELNQQG)”, the “relative affinity for HLA-DR2” value in assay [1] is on record as “high relative affinity”.

In the case of “AChRα 310-327: synthetic peptide fragment of the acetylcholine receptor α subunit, residues 310-327 (NWVRKVFIDTIPNIMFFS)”, the “relative affinity for HLA-DR2” value in assay [1] is “high relative affinity”.

Turning to “AChRα 145-163: synthetic peptide fragment of the acetylcholine receptor α subunit, residues 145-163 (KLGTWTYDGSVVAINPESD)”, the “affinity for HLA-DR3” value in assay [2] is recorded as “high affinity”.

On to “AChRα 195-212: synthetic peptide fragment of the acetylcholine receptor α subunit, residues 195-212”, for which the “affinity for HLA-DR3” value in assay [2] is “high affinity”.

Values taken from patent publication US20050048066A1, “Identification of potential immunodominant acetylcholine receptor alpha subunit” (priority 2000, published 2005).
